Results on 9 molecules are retold here after patent US20210332145A1 (SINGLE CELL TECHNOLOGY, published 2021).

Residue numbers refer to the chain shown, from its start.

For assay [1], the target named is T1, BCMA on cells (293T cells transfected with BCMA; H929, MM.1S and U266 cell lines expressing BCMA) (human, UniProt Q02223 1-184).
T1 construct: H929, MM.1S and U266 carry the native protein; also called B-cell Maturation Antigen; TNFRSF17
T1 sequence: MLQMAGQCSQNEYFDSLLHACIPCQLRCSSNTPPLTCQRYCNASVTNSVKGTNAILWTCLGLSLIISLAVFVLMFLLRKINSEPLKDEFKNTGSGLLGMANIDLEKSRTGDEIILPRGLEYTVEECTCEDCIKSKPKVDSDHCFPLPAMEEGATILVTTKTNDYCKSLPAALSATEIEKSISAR
Nature of the assay: flow cytometry, H929 cells.

Assay [2] addresses T2, cyno BCMA with a His tag (ACROBiosystems, Catalog No.: BCA-052H7) (cyno).
T2 construct: Bought His-tagged recombinant protein
Nature of the assay: ELISA, plate-coated cyno BCMA-His. As to the method:
(§1) The recombinantly expressed antibodies were used to assess binding activity to BCMA of different species origins by conventional ELISA according to the known art. Recombinant human BCMA, cyno BCMA, and mouse BCMA were coated onto ELISA plates to detect binding at serially diluted concentrations of the anti-BCMA antibody preparations.
(§2) The ability for antibodies of the present disclosure to bind human BCMA was measured with an ELISA assay. For the BCMA binding assay, a 96-well plate (Nunc) is coated with human BCMA with a His tag (ACROBiosystems, Catalog No.: AC108P1-180611F2-Bulk, SEQ ID NO:2) at 0.2 μg/well overnight at 4° C. Wells are blocked for 2 h with blocking buffer (PBS containing 3% bovine serum albumin). Wells are washed three times with PBS containing 0.1% Tween-20. Anti-human BCMA antibodies of the present disclosure or control IgG (100 μL) is then added and incubated at room temperature for 1 h. After washing, the plate is incubated with 100 μL of goat anti-mouse IgG Fcγ Fragment Specific-HRP conjugate (Jackson ImmunoResearch) at room temperature for 1 h. The plates are washed and then incubated with 100 μL of 3,3′,5,5′-tetra-methylbenzidine. The absorbance at 450 nm is read on a microplate reader. The half maximal effective concentration (EC50) is calculated using GraphPad Prism 6 software.
In experiments performed essentially as described above, anti-human BCMA antibodies of the present disclosure bind cyno BCMA with a His tag (ACROBiosystems, Beijing, China, Catalog No.: BCA-052H7, SEQ ID NO:110) with an EC50 values shown in Table 4.
Background: ELISA stands for enzyme-linked immunosorbent assay.

In assay [3] the target is T3, human BCMA with a His tag (ACROBiosystems, Catalog No.: BCA-H522y) (human).
T3 construct: Bought His-tagged recombinant protein; also called huBCMA-His; Recombinant human BCMA
T3 chain: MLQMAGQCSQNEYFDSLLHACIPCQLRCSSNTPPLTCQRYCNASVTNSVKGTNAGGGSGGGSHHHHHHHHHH
Kind of assay: ELISA, plate-coated human BCMA-His. As to the method:
as §1, §2
In experiments performed essentially as described above, anti-human BCMA antibodies of the present disclosure bind human BCMA with a His tag (ACROBiosystems, Beijing, China, Catalog No.: BCA-H522y, SEQ ID NO:2) with an EC50 values shown in Table 3.

Assay [4] concerns the target T4, mouse BCMA with a His tag (ACROBiosystems, Catalog No.: BCA-M52H3) (mouse).
T4 construct: Bought His-tagged recombinant protein
T4 chain: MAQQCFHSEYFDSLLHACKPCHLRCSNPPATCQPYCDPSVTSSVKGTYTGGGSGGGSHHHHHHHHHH
Kind of assay: ELISA, plate-coated mouse BCMA-His. As to the method:
as §1, §2
In experiments performed essentially as described above, anti-human BCMA antibodies of the present disclosure bind mouse BCMA with a His tag (ACROBiosystems, Beijing, China, Catalog No.: BCA-M52H3, SEQ ID NO:109) with an EC50 values shown in Table 5.

In assay [5] the target is T3, human BCMA with a His tag …. Nature of the assay: SPR, Biacore T200. As to the method: The binding affinity of select anti-BCMA was measured on a surface plasmon resonance (SPR) instrument, Biacore T200™, against human BCMA by a method known in the art.
In experiments performed essentially as described above, a subset of anti-human BCMA antibodies of the present disclosure bind human BCMA with a His tag (ACROBiosystems, Beijing, China, Catalog No.: BCA-H522y, SEQ ID NO:2) with affinity shown in Table 6.
Background: In SPR one partner is held on a chip, and binding of the other changes the refractive index at the surface.

Assay [6] has as its target T1, BCMA on cells (293T cells transfected …). Kind of assay: flow cytometry, 293T cells transfected with BCMA, above parental 293T background. A general note: Flow cytometry measures light scatter and fluorescence of single cells or particles in a stream.
Assay [7] shares this target. Kind of assay: flow cytometry, H929 cells. How it is done: A cell line expressing BCMA, H929, was used to assess binding by anti-BCMA antibodies on the native protein on the cell surface by flow cytometry according to the known art. A subset of anti-human BCMA antibodies were assayed for binding to H929 and the fraction of cells bound the labeled antibody above background defined by control is shown in Table 8.
The source holds these as a separate data set.

T2 sequence (chain, as listed by the source limits assumed): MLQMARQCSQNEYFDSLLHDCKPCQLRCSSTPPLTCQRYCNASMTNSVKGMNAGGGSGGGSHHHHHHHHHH

B1: SCT-Aa02(m/m) (antibody, V domains shown)
VH: EVKLLQSGGGLVQPGGSLKLSCAASGIDFSRYWMSWVRRAPGKGLEWIGEINPDSSTINSAPSLEDKFIISRDNAKNTLYLQMSKVRSEDTALYYCASLYYDYERDYAMDYWGQGASVTVSS
VL: DIVMTQSQKFMSTSVGDRVSVTCKASQNVGTNVAWYQQKPGQSPKALIYSASYRFSGVPDRFTGSGSGTDFTLTISNVQSEDLAEYFCQQYHSYPFTFGGGTKLEIK
notes: Full IgG format: mouse IgG1 heavy chain constant region, mouse kappa light chain constant region
With B1, the Mean fluorescent intensity in assay [1] was 4560. Moreover, the 50% effective concentration (EC50) – broadly, the concentration needed to bring the measured effect to its halfway point – turned out to be 0.0891 µg/mL in assay [2], 0.00286 µg/mL in assay [3] and 0.00262 µg/mL in assay [4]. Also, binding in assay [5] was characterised by a dissociation constant (Kd) of 0.388 nM. In addition, the dissociation rate constant (koff) (usually a measure of how fast the partners let go of each other) in assay [5] was 0.000113 s⁻¹. For the same molecule, the kon (in general, the rate constant with which the complex forms) in assay [5] is 292000 M⁻¹ s⁻¹. Also, the “Positive (%)” value in assay [6] stood at 96.3%; in assay [7], 100%.

B2: SCT-Aa03(h/h) (antibody, V domains shown)
VH: EVKLLQSGGGLVQPGGSLKLSCAASGIDFSRYWMSWVRRAPGKGLEWIGEINPDSSTINYAPSLKDKFIISRDNAKNTLYLQMSKVRSEDTALYYCASFYYDYDHAMDYWGQGTSVTVSS
VL: B1 VL with V19F, H92N, G100S
notes: Full IgG format, chimeric: human IgG1 heavy chain constant region, human kappa light chain constant region
On to B2, for which, in assay [1], the Mean fluorescent intensity was 1070. Also, the values for the EC50 in assay [2], in assay [3] and in assay [4] were 1.6 µg/mL, 0.00346 µg/mL and 0.0108 µg/mL, respectively. Moreover, the Kd (commonly a measure of binding affinity in units of concentration) in assay [5] amounted to 9.49 nM. For the same molecule, the koff in assay [5] was determined as 0.00284 s⁻¹. In assay [5], this molecule displayed a kon of 299000 M⁻¹ s⁻¹. Further, the “Positive (%)” value in assay [6] stood at 75.1%; in assay [7], 98.2%.

B3: SCT-Aa04(m/m) (antibody, V domains shown)
VH: B1 VH with S60Y, E65K, L99F, E104D, D106G, Y107A, A116T
VL: B1 VL with F55Y, H92N, F96Y
notes: as for B1
As to B3, the Mean fluorescent intensity in assay [1] is 3790. Also, the EC50 in assay [2] came out at 2.05 µg/mL; in assay [3], 0.00232 µg/mL; in assay [4], 0.0343 µg/mL. The molecule also came in with a Kd in assay [5] of 5.62 nM. The koff in assay [5] amounted to 0.0126 s⁻¹. In assay [5], the kon is 2.25e+06 M⁻¹ s⁻¹. The “Positive (%)” value stood at 88.9% in assay [6] and 99.9% in assay [7].

B4: SCT-Aa06(h/h) (antibody, V domains shown)
VH: EVQLQQSGPELVKPGNSVKISCKASGYSFTGYFMNWVMQSHGKSLEWIGRINPYNGDTFYNQKFKGKATLTVDKSSSTAHMELRSLTSEDSAVYYCARLDYTNYNSYPMDYWGQGTSVTVSS
VL: DIQMTHTTSSLSASLGDRVTISCSASQGISNYLNWYLQKPDGTVKLLIYYTSNLHSGVPSRFSGSGSGTDFSLTISNLQPEDIATYYCQQYSKFPWTFGGGTKLEIK
notes: as for B2
B4: in assay [1], the Mean fluorescent intensity worked out at 1260. The 50% effective concentration (EC50) turned out to be 0.0976 µg/mL in assay [2], 0.00278 µg/mL in assay [3] and 0.0972 µg/mL in assay [4]. In assay [5], this molecule gave a Kd of 5.38 nM. Besides, the dissociation rate constant (koff) in assay [5] was determined as 0.02 s⁻¹. The same molecule had a kon in assay [5] of 3.72e+06 M⁻¹ s⁻¹. In addition, the figures for the “Positive (%)” value in assay [6] and in assay [7] were 82.8% and 99.6%, respectively.

B5: SCT-Aa16(h/h) (antibody, V domains shown)
VH: EVQLQQSGPELVKPGASVKMSCKGSGYTFTNYIMHWVKQKPGQGLEWIGYIIPYNDNTKYNEKFKGKATLTSDKSSSTAYMELSSLTSEDSAVYYCATYEYDVGLDYWGQGTTLTVSS
VL: B4 VL with I2L, H6Q, S26R, S30V, L37Q, Y50N, N53S, F71Y, Q79E, F94L
notes: as for B2
Take B5: the Mean fluorescent intensity in assay [1] was 853. Further, the EC50 turned out to be 0.0778 µg/mL in assay [2], 0.00201 µg/mL in assay [3] and 1.08 µg/mL in assay [4]. In addition, the Kd in assay [5] was 26.7 nM. The same molecule showed a koff in assay [5] of 0.199 s⁻¹. Moreover, the kon in assay [5] amounted to 7.43e+06 M⁻¹ s⁻¹. Besides, the “Positive (%)” value in assay [6] was found to be 68.1%; in assay [7], 96.1%.

B6: SCT-Aa12(m/m) (antibody, V domains shown)
VH: QVQLQQSDAELVKPGASVKISCKVSGYTFTDYTIHWMKQRPEQGLEWIGYIFPSDGSTKYNEKFKGKATLTADKSSSTAYMQLNSLTSDDSAVYFCARWDYEGFDYWGQGTTLTVSS
VL: DIVMTQSPATLSVTPGDRVSLSCRASQSISDYLNWYQQKSHESPRLLIKYASQSISGIPSRFSGSGSGSDFTLSINSVEPEDVGVYYCQNGHSFPPTFGSGTKLEIK
notes: as for B1
On to B6, for which the Mean fluorescent intensity in assay [1] came to 3480. Also, the EC50 in assay [2] is 9.74 µg/mL; in assay [3], 0.0017 µg/mL; in assay [4] it was 0.0107 µg/mL. Besides, the Kd in assay [5] worked out at 5.01 nM. Further, the off-rate constant (koff) in assay [5] amounted to 0.011 s⁻¹. Also, the kon in assay [5] is 2.2e+06 M⁻¹ s⁻¹. The figures for the “Positive (%)” value in assay [6] and in assay [7] were 85.7% and 99.9%, respectively.

B7: SCT-Aa13(h/h) (antibody, V domains shown)
VH: B6 VH with F52Y, S54R, D89E
VL: B6 VL with N34H
notes: as for B2
B7 returned a Mean fluorescent intensity in assay [1] of 756. In addition, the results for the EC50 in assay [2], in assay [3] and in assay [4] were 0.131 µg/mL, 0.00268 µg/mL and 0.019 µg/mL, respectively. The Kd in assay [5] came out at 4.85 nM. In assay [5], this molecule registered a koff of 0.0157 s⁻¹. The molecule also came in with a kon in assay [5] of 3.23e+06 M⁻¹ s⁻¹. The “Positive (%)” value in assay [6] came out at 74.3%; in assay [7] it was 96.5%.

B8: SCT-Aa18(h/h) (antibody, V domains shown)
VH: EVQLQQSGPELVKPGASVKISCKASGYTFISYVMHWVKQKPGQGLEWIGYIIPYNDGTKYNEKFKGKATLTSDKSSSTAYMELSSLTSEDSAVYYCAKWGNWDEGTWFPYWGQGTLVTVSA
VL: DVLMTQTPLSLPVSLGDQASFSCRSSQSIVHSDGNTYLEWYLQKPGQSPKLLIYKISNRFSGVPDRFSGSGSGTDFTLKISRVEAEDLGVYYCFQGSHVPWTFGGGTKLEIK
notes: as for B2
With B8, the Mean fluorescent intensity in assay [1] stood at 875. Besides, the EC50 in assay [2] came out at 0.0788 µg/mL; in assay [3], 0.00268 µg/mL; in assay [4] it was 0.271 µg/mL. In assay [5], this molecule returned a Kd of 12.2 nM. This molecule also displayed a koff in assay [5] of 0.0506 s⁻¹. This molecule gave a kon in assay [5] of 4.15e+06 M⁻¹ s⁻¹. Further, the “Positive (%)” value was 76.1% in assay [6] and 97% in assay [7].

B9: SCT-Aa17(h/h) (antibody, V domains shown)
VH: EVQLQQSGPELVKPGASVKMSCKASGYTFTSYVMDWVKQKPGQGLEWIGYINPYNDGTKYNEKFKGKATLTSDKSSSTVYMELSSLTSEDSAVYHCARSDYDYGYAMDYWGQGTSVTVSS
VL: DIQMTQSPASLSLSVGETVTITCRASENIYSNLAWYQQKQGNSPQLLVYSATHLADGVPSRFSGSGSGTQYSLKINSLQSEDFGCYYCQHFWGPPWTFGGGTKLEIK
notes: as for B2
Consider B9, for which the Mean fluorescent intensity in assay [1] was 232. Further, the EC50 in assay [2] was 2.17 µg/mL; in assay [3], 0.00356 µg/mL; in assay [4] it was 4.33 µg/mL. In assay [5], this molecule showed a dissociation constant Kd of 2.45 nM. Also, the koff in assay [5] came to 0.0132 s⁻¹. Also, the kon in assay [5] was found to be 5.39e+06 M⁻¹ s⁻¹. Also, the “Positive (%)” value was determined as 43% in assay [6] and 75% in assay [7].
